In one assay the target is CD47 (Homo sapiens) (UniProt Q08722). The note with it: cited from earlier work.
Assay [1] has as its target human CD47 with His tag (human) (UniProt Q08722). Kind of assay: ELISA; competition with SIRPa-Fc. Background: ELISA stands for enzyme-linked immunosorbent assay.

SIRPα, sequence (P97797 32-373): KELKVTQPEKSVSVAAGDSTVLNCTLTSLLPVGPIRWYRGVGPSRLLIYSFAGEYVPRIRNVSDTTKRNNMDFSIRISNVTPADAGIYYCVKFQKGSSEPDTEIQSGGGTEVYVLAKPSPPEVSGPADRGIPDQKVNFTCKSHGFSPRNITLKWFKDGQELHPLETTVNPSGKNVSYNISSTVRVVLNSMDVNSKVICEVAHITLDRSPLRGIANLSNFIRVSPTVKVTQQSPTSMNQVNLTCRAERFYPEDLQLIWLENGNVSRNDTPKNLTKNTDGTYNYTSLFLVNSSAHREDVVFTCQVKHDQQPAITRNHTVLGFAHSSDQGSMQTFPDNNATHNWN
CD47 (Homo sapiens), sequence (Q08722 19-323): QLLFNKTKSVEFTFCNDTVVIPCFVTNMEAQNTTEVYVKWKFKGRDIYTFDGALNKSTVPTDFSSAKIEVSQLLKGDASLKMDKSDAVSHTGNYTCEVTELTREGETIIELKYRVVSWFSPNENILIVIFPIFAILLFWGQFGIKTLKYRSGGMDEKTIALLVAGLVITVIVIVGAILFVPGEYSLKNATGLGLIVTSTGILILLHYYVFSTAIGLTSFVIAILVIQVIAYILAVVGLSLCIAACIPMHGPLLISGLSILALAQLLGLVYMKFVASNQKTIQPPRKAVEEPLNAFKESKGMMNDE
human CD47 with His tag (human), sequence (Q08722 19-323): as above

On to SIRPα (from UniProt P97797), for which the equilibrium dissociation constant (Kd) in the assay with CD47 (Homo sapiens) was 300 nM.

Consider B6H12.2, for which the half-maximal inhibitory concentration (IC50) in assay [1] is 233 nM.

What is called Kd is the free concentration of one partner at which half of the binding sites on the other are occupied at equilibrium, for simple one-to-one binding. The term IC50 denotes the concentration that gives 50% inhibition. A lower IC50 goes with inhibition by little substance.

These data come from publication PMC10801496.
